Data: PMC3951439

Biological target: EZH2 subunit of purified human PRC2 (human) (UniProt Q15910)
Sequence (Q15910 whole entry): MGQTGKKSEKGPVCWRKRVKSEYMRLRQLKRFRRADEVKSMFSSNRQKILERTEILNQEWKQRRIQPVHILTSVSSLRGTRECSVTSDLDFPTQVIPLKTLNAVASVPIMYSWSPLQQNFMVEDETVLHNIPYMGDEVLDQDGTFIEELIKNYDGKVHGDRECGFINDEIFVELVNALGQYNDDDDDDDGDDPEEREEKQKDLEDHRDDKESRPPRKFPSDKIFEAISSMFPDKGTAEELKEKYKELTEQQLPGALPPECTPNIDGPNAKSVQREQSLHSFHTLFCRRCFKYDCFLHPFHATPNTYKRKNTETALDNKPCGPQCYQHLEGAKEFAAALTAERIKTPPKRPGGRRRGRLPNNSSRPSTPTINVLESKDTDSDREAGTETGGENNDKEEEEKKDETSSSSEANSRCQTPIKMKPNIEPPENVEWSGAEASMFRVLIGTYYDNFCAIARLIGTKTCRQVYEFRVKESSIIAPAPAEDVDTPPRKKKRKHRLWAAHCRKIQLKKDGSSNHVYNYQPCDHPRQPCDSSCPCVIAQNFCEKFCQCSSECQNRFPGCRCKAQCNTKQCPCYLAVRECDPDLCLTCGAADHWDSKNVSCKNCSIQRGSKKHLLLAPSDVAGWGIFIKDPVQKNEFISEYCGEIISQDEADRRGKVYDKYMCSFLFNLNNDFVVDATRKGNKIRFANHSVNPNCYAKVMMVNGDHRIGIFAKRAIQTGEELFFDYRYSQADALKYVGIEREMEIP

## H3 peptide (18 to 37) containing K27Ile (from UniProt P84243 19-38)
  IC50 of inhibition of PRC2 methyltransferase activity in vitro, peptide titrated: 8.9 µM
